The values below come from the supplement of paper PMC5998384.

Data set [1] deals with HeLa Kyoto. The experiment in a line: solubility in G1/S (NP-40 vs SDS abundance) (log2 ratio); higher = more soluble. As to conditions: cell cycle stage: G1/S.
The subject of data set [2] is HeLa Kyoto. The experiment in a line: melting temperature (median over replicates), in situ; higher = more thermally stable.
Data set [3] concerns HeLa Kyoto. Briefly: solubility change mitosis vs G1/S (difference of NP-40 vs SDS log2 ratios) (log2 ratio difference); higher = more soluble in mitosis.
For data set [4], the system named is HeLa Kyoto. The experiment in a line: thermal stability score vs G1/S (z-score of summed log2 fold changes over temperatures); higher = more thermally stable than in G1/S.
Where [5] appears, read: cell cycle stage: early G1 (4.5 h after nocodazole release).
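For melting temperature (median over replicates), in situ in this document: HeLa Kyoto cells synchronized by double thymidine or nocodazole block, proteins quantified by TMT10plex mass spectrometry, three independent biological replicates.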
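For solubility change mitosis vs G1/S (difference of NP-40 vs SDS log2 ratios) in this document: synchronized HeLa Kyoto cells (double thymidine block for G1/S, nocodazole release for mitosis), protein amounts in NP-40 versus SDS lysates quantified by mass spectrometry, three biological replicates.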
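For solubility in G1/S (NP-40 vs SDS abundance) in this document: HeLa Kyoto cells arrested at G1/S by double thymidine block, proteins quantified by TMT10plex mass spectrometry in mild NP-40 versus SDS extracts, three biological replicates.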
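For thermal stability score vs G1/S (z-score of summed log2 fold changes over temperatures) in this document: synchronized HeLa Kyoto cells, proteins quantified by TMT10plex mass spectrometry, three biological replicates, mitosis taken 0.5 h after nocodazole release, G1/S directly after double thymidine block.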

On to “MGCTVSAEDKAAAERSKMIDKNLREDGEKAAREVKLLLLGAGESGKSTIVKQMKIIHEDGYSEEECRQYRAVVYSNTIQSIMAIVKAMGNLQIDFADPSRADDARQLFALSCTAEEQGVLPDDLSGVIRRLWADHGVQACFGRSREYQLNDSAAYYLNDLERIAQSDYIPTQQDVLRTRVKTTGIVETHFTFKDLHFKMFDVGGQRSERKKWIHCFEGVTAIIFCVALSAYDLVLAEDEEMNRMHESMKLFDSICNNKWFTDTSIILFLNKKDLFEEKITHSPLTICFPEYTGANKYDEAASYIQSKFEDLNKRKDTKEIYTHFTCATDTKNVQFVFDAVTDVIIKNNLKDCGLF [GNAI2]”, for which the “solubility in G1/S (log2)” value in the data set on HeLa Kyoto [1] was -0.568. The melting temperature in the data set with HeLa Kyoto [2] (cell cycle stage: G1/S) was 53.5 °C; in the data set on HeLa Kyoto [2] (cell cycle stage: mitosis), 54.2 °C. In the data set on HeLa Kyoto [3], the “solubility change mitosis (log2)” value was -0.242. The thermal stability score came to 0.395 in the data set on HeLa Kyoto [4] (setting [5]) and 0.061 in the data set with HeLa Kyoto [4] (cell cycle stage: mitosis).

Consider “MGCWGRNRGRLLCMLALTFMFMVLEVVVSRVTSSLAMLSDSFHMLSDVLALVVALVAERFARRTHATQKNTFGWIRAEVMGALVNAIFLTGLCFAILLEAIERFIEPHEMQQPLVVLGVGVAGLLVNVLGLCLFHHHSGFSQDSGHGHSHGGHGHGHGLPKGPRVKSTRPGSSDINVAPGEQGPDQEETNTLVANTSNSNGLKLDPADPENPRSGDTVEVQVNGNLVREPDHMELEEDRAGQLNMRGVFLHVLGDALGSVIVVVNALVFYFSWKGCSEGDFCVNPCFPDPCKAFVEIINSTHASVYEAGPCWVLYLDPTLCVVMVCILLYTTYPLLKESALILLQTVPKQIDIRNLIKELRNVEGVEEVHELHVWQLAGSRIIATAHIKCEDPTSYMEVAKTIKDVFHNHGIHATTIQPEFASVGSKSSVVPCELACRTQCALKQCCGTLPQAPSGKDAEKTPAVSISCLELSNNLEKKPRRTKAENIPAVVIEIKNMPNKQPESSL [SLC30A1]”, for which the “solubility in G1/S (log2)” value with HeLa Kyoto [1] was -0.0235. Also, the melting temperature was 58.4 °C with HeLa Kyoto [2] (cell cycle stage: G1/S) and 59.4 °C in the data set with HeLa Kyoto [2] (cell cycle stage: mitosis). Also, the “solubility change mitosis (log2)” value in the data set with HeLa Kyoto [3] is -0.0896. Further, the results for the thermal stability score in the data set on HeLa Kyoto [4] (setting [5]) and in the data set on HeLa Kyoto [4] (cell cycle stage: mitosis) were -2.04 and -1.95, respectively.

Consider “MGDAPSPEEKLHLITRNLQEVLGEEKLKEILKERELKIYWGTATTGKPHVAYFVPMSKIADFLKAGCEVTILFADLHAYLDNMKAPWELLELRVSYYENVIKAMLESIGVPLEKLKFIKGTDYQLSKEYTLDVYRLSSVVTQHDSKKAGAEVVKQVEHPLLSGLLYPGLQALDEEYLKVDAQFGGIDQRKIFTFAEKYLPALGYSKRVHLMNPMVPGLTGSKMSSSEEESKIDLLDRKEDVKKKLKKAFCEPGNVENNGVLSFIKHVLFPLKSEFVILRDEKWGGNKTYTAYVDLEKDFAAEVVHPGDLKNSVEVALNKLLDPIREKFNTPALKKLASAAYPDPSKQKPMAKGPAKNSEPEEVIPSRLDIRVGKIITVEKHPDADSLYVEKIDVGEAEPRTVVSGLVQFVPKEELQDRLVVVLCNLKPQKMRGVESQGMLLCASIEGINRQVEPLDPPAGSAPGEHVFVKGYEKGQPDEELKPKKKVFEKLQADFKISEECIAQWKQTNFMTKLGSISCKSLKGGNIS [YARS]”, for which the “solubility in G1/S (log2)” value with HeLa Kyoto [1] was 0.259. Moreover, the melting temperature with HeLa Kyoto [2] (cell cycle stage: G1/S) was determined as 49.3 °C; in the data set with HeLa Kyoto [2] (cell cycle stage: mitosis), 49.4 °C. The “solubility change mitosis (log2)” value in the data set with HeLa Kyoto [3] is -0.092. Besides, the thermal stability score in the data set on HeLa Kyoto [4] (setting [5]) amounted to 0.25; in the data set with HeLa Kyoto [4] (cell cycle stage: mitosis), 2.33.

On to “MGDMTNSDFYSKNQRNESSHGGEFGCTMEELRSLMELRGTEAVVKIKETYGDTEAICRRLKTSPVEGLPGTAPDLEKRKQIFGQNFIPPKKPKTFLQLVWEALQDVTLIILEIAAIISLGLSFYHPPGEGNEGCATAQGGAEDEGEAEAGWIEGAAILLSVICVVLVTAFNDWSKEKQFRGLQSRIEQEQKFTVVRAGQVVQIPVAEIVVGDIAQVKYGDLLPADGLFIQGNDLKIDESSLTGESDQVRKSVDKDPMLLSGTHVMEGSGRMLVTAVGVNSQTGIIFTLLGAGGEEEEKKDKKGVKKGDGLQLPAADGAAASNAADSANASLVNGKMQDGNVDASQSKAKQQDGAAAMEMQPLKSAEGGDADDRKKASMHKKEKSVLQGKLTKLAVQIGKAGLVMSAITVIILVLYFTVDTFVVNKKPWLPECTPVYVQYFVKFFIIGVTVLVVAVPEGLPLAVTISLAYSVKKMMKDNNLVRHLDACETMGNATAICSDKTGTLTTNRMTVVQAYVGDVHYKEIPDPSSINTKTMELLINAIAINSAYTTKILPPEKEGALPRQVGNKTECGLLGFVLDLKQDYEPVRSQMPEEKLYKVYTFNSVRKSMSTVIKLPDESFRMYSKGASEIVLKKCCKILNGAGEPRVFRPRDRDEMVKKVIEPMACDGLRTICVAYRDFPSSPEPDWDNENDILNELTCICVVGIEDPVRPEVPEAIRKCQRAGITVRMVTGDNINTARAIAIKCGIIHPGEDFLCLEGKEFNRRIRNEKGEIEQERIDKIWPKLRVLARSSPTDKHTLVKGIIDSTHTEQRQVVAVTGDGTNDGPALKKADVGFAMGIAGTDVAKEASDIILTDDNFSSIVKAVMWGRNVYDSISKFLQFQLTVNVVAVIVAFTGACITQDSPLKAVQMLWVNLIMDTFASLALATEPPTETLLLRKPYGRNKPLISRTMMKNILGHAVYQLALIFTLLFVGEKMFQIDSGRNAPLHSPPSEHYTIIFNTFVMMQLFNEINARKIHGERNVFDGIFRNPIFCTIVLGTFAIQIVIVQFGGKPFSCSPLQLDQWMWCIFIGLGELVWGQVIATIPTSRLKFLKEAGRLTQKEEIPEEELNEDVEEIDHAERELRRGQILWFRGLNRIQTQIRVVKAFRSSLYEGLEKPESRTSIHNFMAHPEFRIEDSQPHIPLIDDTDLEEDAALKQNSSPPSSLNKNNSAIDSGINLTTDTSKSATSSSPGSPIHSLETSL [ATP2B2]”, for which the “solubility in G1/S (log2)” value in the data set with HeLa Kyoto [1] is -0.538. Further, the results for the melting temperature in the data set with HeLa Kyoto [2] (cell cycle stage: G1/S) and in the data set with HeLa Kyoto [2] (cell cycle stage: mitosis) were 54.2 °C and 53.6 °C, respectively. The “solubility change mitosis (log2)” value in the data set on HeLa Kyoto [3] was -0.123. Besides, the values for the thermal stability score with HeLa Kyoto [4] (setting [5]) and in the data set with HeLa Kyoto [4] (cell cycle stage: mitosis) were -1.72 and -2.96, respectively.

Take “MGDREQLLQRARLAEQAERYDDMASAMKAVTELNEPLSNEDRNLLSVAYKNVVGARRSSWRVISSIEQKTMADGNEKKLEKVKAYREKIEKELETVCNDVLSLLDKFLIKNCNDFQYESKVFYLKMKGDYYRYLAEVASGEKKNSVVEASEAAYKEAFEISKEQMQPTHPIRLGLALNFSVFYYEIQNAPEQACLLAKQAFDDAIAELDTLNEDSYKDSTLIMQLLRDNLTLWTSDQQDEEAGEGN [YWHAH]”: in the data set on HeLa Kyoto [1], the “solubility in G1/S (log2)” value is 0.565. The figures for the melting temperature in the data set with HeLa Kyoto [2] (cell cycle stage: G1/S) and in the data set with HeLa Kyoto [2] (cell cycle stage: mitosis) were 52.5 °C and 52.6 °C, respectively. The “solubility change mitosis (log2)” value in the data set with HeLa Kyoto [3] worked out at 0.0669. Moreover, the figures for the thermal stability score in the data set on HeLa Kyoto [4] (setting [5]) and in the data set on HeLa Kyoto [4] (cell cycle stage: mitosis) were -1.65 and -1.58, respectively.
